Measurements as given in paper PMC6486627, “Structural basis for RNA translocation by DEAH-box ATPases” (Nucleic Acids Research, 2019).

What was measured:
ctPrp43 = target: T1, ctPrp43 (Thermochaetoides thermophila, UniProt G0RY84); experiment: NADH-coupled ATPase assay (pyruvate kinase / lactate dehydrogenase), […] nm; type: biochemical; settings: no RNA; no G-patch protein; 25 mM Bis-Tris propane pH 7.5, 150 mM KCl, 3 mM MgCl2, 25 °C; 5 uM enzyme; ATP 0-2 mM
T1 construct: gene CTHT_0005780; truncated, residues 61-764; GST fusion, tag cleaved by TEV; E. coli Rosetta 2 (DE3); no G-patch protein

purified protein = substrate: Nc1ncnc2c1ncn2[C@@H]1O[C@H](COP(=O)(O)OP(=O)(O)OP(=O)(O)O)[C@@H](O)[C@H]1O; experiment: purified protein; type: biochemical, Thermochaetoides thermophila; settings: no RNA, 25 mM Bis-Tris propane pH 7.5, 150 mM KCl, 3 mM MgCl2, 25 °C, 0.4 uM enzyme, ATP 0-2 mM

T1 sequence (G0RY84 entry or part of it): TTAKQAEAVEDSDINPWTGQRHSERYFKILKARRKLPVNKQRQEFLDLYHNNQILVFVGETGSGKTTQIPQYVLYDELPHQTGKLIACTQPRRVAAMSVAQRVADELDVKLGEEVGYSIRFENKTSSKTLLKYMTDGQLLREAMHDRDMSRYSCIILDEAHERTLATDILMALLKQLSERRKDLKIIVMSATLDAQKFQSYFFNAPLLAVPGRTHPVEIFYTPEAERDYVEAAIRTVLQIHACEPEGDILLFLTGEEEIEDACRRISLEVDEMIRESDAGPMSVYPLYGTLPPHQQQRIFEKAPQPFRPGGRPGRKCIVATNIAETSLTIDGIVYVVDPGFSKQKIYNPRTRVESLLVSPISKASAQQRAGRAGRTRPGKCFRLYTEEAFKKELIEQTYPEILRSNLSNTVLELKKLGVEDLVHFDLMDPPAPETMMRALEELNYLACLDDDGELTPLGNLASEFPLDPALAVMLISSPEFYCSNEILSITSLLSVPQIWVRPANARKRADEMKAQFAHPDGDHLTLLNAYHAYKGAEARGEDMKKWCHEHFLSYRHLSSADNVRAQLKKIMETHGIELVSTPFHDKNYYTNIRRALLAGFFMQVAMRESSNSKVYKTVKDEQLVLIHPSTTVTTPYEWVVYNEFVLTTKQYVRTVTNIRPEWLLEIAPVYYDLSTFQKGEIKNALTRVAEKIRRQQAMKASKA

Km (ctPrp43) | Molecule | Km (purified protein) | kcat (purified protein)
21.1 ± 3.88 µM | Nc1ncnc2c1ncn2[C@@H]1O[C@H](COP(=O)(O)OP(=O)(O)OP(=O)(O)O)[C@@H](O)[C@H]1O [ATP] | – | –
– | ctPrp22 (Thermochaetoides thermophila DSM 1495) (protein, N-terminally truncated, lacks first 545 residues (S1 motif omitted); GST fusion from pGEX-6p1, tag cleaved by TEV; E. coli Rosetta 2 (DE3)) TNMSIKEQRESLPVFQFRDQIIQAVKDNQILIVVGETGSGKTTQVTQYLAEAGFTKYGMIGCTQPRRVAAVSVAKRVAEEVGCQLGQEVGYTIRFEDVTSPATKIKYMTDGMLQREILMDPDLKRYSVIMLDEAHERTIATDVLFALLKKTVKRRPDLKVIVTSATLDAEKFSEYFNSCPIFTIPGRTFPVEILYSREPEPDYLEAALTTVMQIHLTEPPGDILVFLTGQEEIDTACEILYERMKALGPSVPELIILPIYSALPSEMQSRIFEPAPPGSRKVVIATNIAETSITIDYIYYVVDPGFVKQNAYDPKLGMDSLVVTPISQAQANQRAGRAGRTGPGKCFRLYTEAAYQSEMLPTTIPDIQRQNLANTILLLKAMGINDLLRFDFMDPPPVNTMLTALEELYALGALDDEGLLTRLGRKMADFPMEPSLSKVLIASVDKGCSDEMVTIVSMLNLQQIFYRPKDKQQQADQKKAKFHDPTGDHLTLLNVYNAWKNSGYSNAWCFENYIQARAMRRARDVRQQIVKIMERHRHPIISCGRDTDKIRQALCAGFFRNTARKDPQEGYKTLTEGTPVYLHPSSALFGKQAEWVLYHELVLTTKEYMHFTTAIEPKWLVEAAPTFFKLAPTDRLSKRKKAERIQPLYNKYEGEDGWRLSAQRRAARPGGGGGTWG | 34.53 ± 1.74 µM | 0.559 ± 0.00483 s⁻¹
– | ctPrp22 (Thermochaetoides thermophila DSM 1495; S837G) (protein, N-terminally truncated, lacks first 545 residues (S1 motif omitted); GST fusion from pGEX-6p1, tag cleaved by TEV; E. coli Rosetta 2 (DE3)) TNMSIKEQRESLPVFQFRDQIIQAVKDNQILIVVGETGSGKTTQVTQYLAEAGFTKYGMIGCTQPRRVAAVSVAKRVAEEVGCQLGQEVGYTIRFEDVTSPATKIKYMTDGMLQREILMDPDLKRYSVIMLDEAHERTIATDVLFALLKKTVKRRPDLKVIVTSATLDAEKFSEYFNSCPIFTIPGRTFPVEILYSREPEPDYLEAALTTVMQIHLTEPPGDILVFLTGQEEIDTACEILYERMKALGPSVPELIILPIYSALPSEMQSRIFEPAPPGSRKVVIATNIAETGITIDYIYYVVDPGFVKQNAYDPKLGMDSLVVTPISQAQANQRAGRAGRTGPGKCFRLYTEAAYQSEMLPTTIPDIQRQNLANTILLLKAMGINDLLRFDFMDPPPVNTMLTALEELYALGALDDEGLLTRLGRKMADFPMEPSLSKVLIASVDKGCSDEMVTIVSMLNLQQIFYRPKDKQQQADQKKAKFHDPTGDHLTLLNVYNAWKNSGYSNAWCFENYIQARAMRRARDVRQQIVKIMERHRHPIISCGRDTDKIRQALCAGFFRNTARKDPQEGYKTLTEGTPVYLHPSSALFGKQAEWVLYHELVLTTKEYMHFTTAIEPKWLVEAAPTFFKLAPTDRLSKRKKAERIQPLYNKYEGEDGWRLSAQRRAARPGGGGGTWG | 24.79 ± 0.93 µM | 0.9228 ± 0.00583 s⁻¹
– | ctPrp22 (Thermochaetoides thermophila DSM 1495; S837A) (protein, N-terminally truncated, lacks first 545 residues (S1 motif omitted); GST fusion from pGEX-6p1, tag cleaved by TEV; E. coli Rosetta 2 (DE3)) TNMSIKEQRESLPVFQFRDQIIQAVKDNQILIVVGETGSGKTTQVTQYLAEAGFTKYGMIGCTQPRRVAAVSVAKRVAEEVGCQLGQEVGYTIRFEDVTSPATKIKYMTDGMLQREILMDPDLKRYSVIMLDEAHERTIATDVLFALLKKTVKRRPDLKVIVTSATLDAEKFSEYFNSCPIFTIPGRTFPVEILYSREPEPDYLEAALTTVMQIHLTEPPGDILVFLTGQEEIDTACEILYERMKALGPSVPELIILPIYSALPSEMQSRIFEPAPPGSRKVVIATNIAETAITIDYIYYVVDPGFVKQNAYDPKLGMDSLVVTPISQAQANQRAGRAGRTGPGKCFRLYTEAAYQSEMLPTTIPDIQRQNLANTILLLKAMGINDLLRFDFMDPPPVNTMLTALEELYALGALDDEGLLTRLGRKMADFPMEPSLSKVLIASVDKGCSDEMVTIVSMLNLQQIFYRPKDKQQQADQKKAKFHDPTGDHLTLLNVYNAWKNSGYSNAWCFENYIQARAMRRARDVRQQIVKIMERHRHPIISCGRDTDKIRQALCAGFFRNTARKDPQEGYKTLTEGTPVYLHPSSALFGKQAEWVLYHELVLTTKEYMHFTTAIEPKWLVEAAPTFFKLAPTDRLSKRKKAERIQPLYNKYEGEDGWRLSAQRRAARPGGGGGTWG | 33.15 ± 2.24 µM | 0.8948 ± 0.0107 s⁻¹
